The experiment deals with CD91 (mouse) (UniProt Q91ZX7). Kind of experiment: cell-based or functional assay.
Chain of UniProt Q91ZX7 (Q91ZX7 20-4545): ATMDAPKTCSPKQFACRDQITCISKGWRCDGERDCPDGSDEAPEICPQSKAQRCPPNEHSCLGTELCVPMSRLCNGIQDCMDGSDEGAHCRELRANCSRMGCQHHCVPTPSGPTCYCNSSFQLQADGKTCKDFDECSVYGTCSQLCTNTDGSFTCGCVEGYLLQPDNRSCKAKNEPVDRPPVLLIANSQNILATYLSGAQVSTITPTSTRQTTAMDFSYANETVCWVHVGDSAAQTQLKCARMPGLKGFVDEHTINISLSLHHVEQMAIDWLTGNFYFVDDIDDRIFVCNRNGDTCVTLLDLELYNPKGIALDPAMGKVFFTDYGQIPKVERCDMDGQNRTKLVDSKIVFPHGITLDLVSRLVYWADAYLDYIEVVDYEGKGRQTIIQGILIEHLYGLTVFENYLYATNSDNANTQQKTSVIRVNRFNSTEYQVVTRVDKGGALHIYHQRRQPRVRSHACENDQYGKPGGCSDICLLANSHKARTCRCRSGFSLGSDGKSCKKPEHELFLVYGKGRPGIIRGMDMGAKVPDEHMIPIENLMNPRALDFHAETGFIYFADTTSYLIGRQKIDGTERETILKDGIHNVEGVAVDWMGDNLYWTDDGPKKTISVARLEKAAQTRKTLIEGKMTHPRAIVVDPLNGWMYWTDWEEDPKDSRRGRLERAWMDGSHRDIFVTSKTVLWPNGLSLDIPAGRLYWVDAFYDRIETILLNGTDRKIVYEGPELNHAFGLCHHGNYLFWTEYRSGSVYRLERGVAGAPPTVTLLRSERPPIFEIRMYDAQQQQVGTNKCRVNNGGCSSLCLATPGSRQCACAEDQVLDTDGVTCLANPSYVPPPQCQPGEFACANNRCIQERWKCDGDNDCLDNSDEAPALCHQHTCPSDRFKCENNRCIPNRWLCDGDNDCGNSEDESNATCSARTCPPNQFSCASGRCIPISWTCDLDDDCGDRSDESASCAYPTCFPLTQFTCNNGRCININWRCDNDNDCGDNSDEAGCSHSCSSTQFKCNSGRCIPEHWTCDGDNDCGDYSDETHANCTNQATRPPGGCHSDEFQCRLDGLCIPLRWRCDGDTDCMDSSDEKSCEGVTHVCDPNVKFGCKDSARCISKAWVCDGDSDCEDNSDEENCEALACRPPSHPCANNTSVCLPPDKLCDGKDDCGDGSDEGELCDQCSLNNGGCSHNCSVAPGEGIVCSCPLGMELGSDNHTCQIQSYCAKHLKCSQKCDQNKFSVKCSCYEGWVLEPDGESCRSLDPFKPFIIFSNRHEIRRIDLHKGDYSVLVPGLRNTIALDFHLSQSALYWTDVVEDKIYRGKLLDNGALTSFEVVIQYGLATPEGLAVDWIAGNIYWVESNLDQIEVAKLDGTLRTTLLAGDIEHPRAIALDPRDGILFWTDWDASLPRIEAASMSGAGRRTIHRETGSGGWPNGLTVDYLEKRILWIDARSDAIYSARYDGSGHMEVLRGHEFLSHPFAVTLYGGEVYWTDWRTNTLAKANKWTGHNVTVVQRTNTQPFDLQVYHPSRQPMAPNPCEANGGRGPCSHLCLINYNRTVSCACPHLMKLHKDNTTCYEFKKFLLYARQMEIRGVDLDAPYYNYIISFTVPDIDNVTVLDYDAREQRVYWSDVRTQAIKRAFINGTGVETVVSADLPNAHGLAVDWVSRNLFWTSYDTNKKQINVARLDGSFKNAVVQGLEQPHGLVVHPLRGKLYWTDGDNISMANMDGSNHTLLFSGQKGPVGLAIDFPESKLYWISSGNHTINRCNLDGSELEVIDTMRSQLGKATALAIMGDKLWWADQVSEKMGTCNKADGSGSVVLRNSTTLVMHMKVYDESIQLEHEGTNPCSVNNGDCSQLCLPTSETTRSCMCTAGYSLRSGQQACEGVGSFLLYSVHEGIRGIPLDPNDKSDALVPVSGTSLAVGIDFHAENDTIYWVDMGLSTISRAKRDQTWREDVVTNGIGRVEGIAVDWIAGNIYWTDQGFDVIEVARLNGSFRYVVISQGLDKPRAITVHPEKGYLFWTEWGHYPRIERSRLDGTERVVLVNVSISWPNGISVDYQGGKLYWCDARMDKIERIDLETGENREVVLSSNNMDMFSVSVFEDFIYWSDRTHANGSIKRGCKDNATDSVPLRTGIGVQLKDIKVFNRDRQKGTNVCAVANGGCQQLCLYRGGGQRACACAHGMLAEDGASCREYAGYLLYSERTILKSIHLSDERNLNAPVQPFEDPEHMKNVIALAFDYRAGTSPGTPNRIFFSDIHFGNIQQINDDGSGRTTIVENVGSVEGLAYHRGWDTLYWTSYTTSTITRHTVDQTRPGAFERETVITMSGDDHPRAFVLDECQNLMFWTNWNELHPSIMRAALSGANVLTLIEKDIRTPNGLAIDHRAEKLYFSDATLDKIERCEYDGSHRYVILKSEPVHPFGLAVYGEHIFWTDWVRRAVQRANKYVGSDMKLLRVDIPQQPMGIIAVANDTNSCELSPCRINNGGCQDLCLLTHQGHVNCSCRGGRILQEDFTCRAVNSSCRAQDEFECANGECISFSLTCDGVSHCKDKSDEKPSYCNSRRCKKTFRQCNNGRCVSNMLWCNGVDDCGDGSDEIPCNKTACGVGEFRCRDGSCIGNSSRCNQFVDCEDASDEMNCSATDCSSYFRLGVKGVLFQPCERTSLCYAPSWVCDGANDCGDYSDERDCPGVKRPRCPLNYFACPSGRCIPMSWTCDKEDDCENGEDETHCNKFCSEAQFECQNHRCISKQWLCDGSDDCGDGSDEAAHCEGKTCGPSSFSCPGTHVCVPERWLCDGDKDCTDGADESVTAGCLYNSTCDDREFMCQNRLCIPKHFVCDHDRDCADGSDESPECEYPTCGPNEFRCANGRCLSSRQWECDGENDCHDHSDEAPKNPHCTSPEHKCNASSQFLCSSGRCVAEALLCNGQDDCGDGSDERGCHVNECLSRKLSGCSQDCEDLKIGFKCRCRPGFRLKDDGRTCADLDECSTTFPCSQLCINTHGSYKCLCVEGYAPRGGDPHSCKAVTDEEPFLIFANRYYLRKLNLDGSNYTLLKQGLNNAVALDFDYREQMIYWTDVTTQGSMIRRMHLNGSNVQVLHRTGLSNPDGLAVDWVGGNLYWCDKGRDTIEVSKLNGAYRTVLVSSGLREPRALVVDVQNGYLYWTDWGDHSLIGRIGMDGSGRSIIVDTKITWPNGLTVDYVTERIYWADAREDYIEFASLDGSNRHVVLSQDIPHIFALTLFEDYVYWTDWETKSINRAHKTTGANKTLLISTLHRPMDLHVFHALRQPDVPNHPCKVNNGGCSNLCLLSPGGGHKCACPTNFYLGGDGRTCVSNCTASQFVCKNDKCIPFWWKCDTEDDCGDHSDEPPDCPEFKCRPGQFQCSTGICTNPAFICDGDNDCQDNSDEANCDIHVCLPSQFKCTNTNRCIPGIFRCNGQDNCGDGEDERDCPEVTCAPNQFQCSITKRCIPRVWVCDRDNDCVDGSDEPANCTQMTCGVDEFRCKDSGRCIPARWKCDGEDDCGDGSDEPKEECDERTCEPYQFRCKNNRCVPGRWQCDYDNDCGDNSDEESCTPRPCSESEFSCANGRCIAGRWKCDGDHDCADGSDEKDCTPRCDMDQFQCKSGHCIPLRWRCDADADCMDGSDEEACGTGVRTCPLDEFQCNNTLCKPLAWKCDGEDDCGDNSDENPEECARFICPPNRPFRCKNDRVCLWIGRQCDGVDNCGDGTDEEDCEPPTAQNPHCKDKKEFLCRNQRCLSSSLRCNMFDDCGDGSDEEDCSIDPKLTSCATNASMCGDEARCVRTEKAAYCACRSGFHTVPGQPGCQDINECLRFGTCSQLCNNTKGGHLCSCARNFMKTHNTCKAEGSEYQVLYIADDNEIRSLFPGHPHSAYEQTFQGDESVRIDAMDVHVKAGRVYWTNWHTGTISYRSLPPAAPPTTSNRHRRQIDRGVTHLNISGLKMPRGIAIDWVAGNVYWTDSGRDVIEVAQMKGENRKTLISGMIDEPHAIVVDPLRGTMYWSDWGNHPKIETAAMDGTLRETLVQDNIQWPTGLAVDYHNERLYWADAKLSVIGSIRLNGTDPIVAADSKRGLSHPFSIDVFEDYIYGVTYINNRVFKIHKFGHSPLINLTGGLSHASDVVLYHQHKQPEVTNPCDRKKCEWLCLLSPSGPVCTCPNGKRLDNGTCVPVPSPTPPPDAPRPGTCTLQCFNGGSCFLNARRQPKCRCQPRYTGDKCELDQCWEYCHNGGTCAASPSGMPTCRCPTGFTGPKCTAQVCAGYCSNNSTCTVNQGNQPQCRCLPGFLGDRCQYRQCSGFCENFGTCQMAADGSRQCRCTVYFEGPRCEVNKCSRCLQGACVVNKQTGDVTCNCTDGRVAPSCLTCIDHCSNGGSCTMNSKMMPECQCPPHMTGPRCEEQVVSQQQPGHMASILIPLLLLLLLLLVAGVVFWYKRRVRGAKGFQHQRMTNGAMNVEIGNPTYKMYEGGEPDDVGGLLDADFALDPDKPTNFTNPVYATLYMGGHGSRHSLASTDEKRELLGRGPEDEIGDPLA

calreticulin (CRT) (ligand): the IFN alpha MFI (Fold Change), RAW264.7 M1 macrophages pulsed with calreticulin 10 ug/ml for 20 min stood at 7.5 fold; the IFN beta MFI (Fold Change), RAW264.7 M1 macrophages pulsed with calreticulin 10 ug/ml for 20 min is 7 fold; the IL-12 MFI (Fold Change), RAW264.7 M1 macrophages pulsed with calreticulin 10 ug/ml for 20 min turned out to be 3.5 fold; the IL-15 MFI (Fold Change), RAW264.7 M1 macrophages pulsed with calreticulin 10 ug/ml for 20 min was found to be 3.5 fold.

Values taken from patent US20240293504A1.
